This note sets out measurements from PMC12216130, “Structural basis for the interaction between the bacterial cell division proteins FtsZ and ZapA” (Nature Communications, 2025).

This data set deals with the molecule itself. The experiment in a line: cryo-EM structure; 7.4 uM KpFtsZ, 14.9 uM KpZapA (2x molar excess), 0.6 mM GMPCPP, 17 mM HEPES pH 7.5, 8.6 mM NaCl, 60 mM KCl, 3 mM MgCl2, on ice 15 min; helical refinement to 2.73 A; same data re-analysed with the focus on ZapA (3.89 and 4.27 A maps, 2D classes).

B1: K. pneumoniae FtsZ (natural protein, UniProt W9BCK7 1-383, looked up)
chain: MFEPMELTNDAVIKVIGVGGGGGNAVEHMVRERIEGVEFFAVNTDAQALRKTAVGQTIQIGSGITKGLGAGANPEVGRNAADEDREALRAALDGADMVFIAAGMGGGTGTGAAPVVAEVAKDLGILTVAVVTKPFNFEGKKRMAFAEQGITELSKHVDSLITIPNDKLLKVLGRGISLLDAFGAANDVLKGAVQGIAELITRPGLMNVDFADVRTVMSEMGYAMMGSGVASGEDRAEEAAEMAISSPLLEDIDLSGARGVLVNITAGFDLRLDEFETVGNTIRAFASDNATVVIGTSLDPDMNDELRVTVVATGIGMDKRPEITLVTNKQVQQPVMDRYQQHGMSPLTQEQKPAAKVVNDNTPQTAKEPDYLDIPAFLRKQAD
notes: polymerised into protofilaments with GMPCPP, GTP or GMPPNP in the assays; also called KpFtsZ; wild-type FtsZ
Consider B1, for which the binding result was “binds”.

B2: K. pneumoniae ZapA (natural protein)
chain: MSAQPVDLQIFGRSLRVNCPPEQRDALNQAAEDLNQRLQDLKERTRVTNTEQLVFIAALNISYELTQEKAKTRDYASSMEQRIRMLQQTIEQALLEQGRISE
notes: ZapA of Klebsiella pneumoniae; synthetic gene codon-optimised for E. coli in pColdI-TEV; Tetramer in the structures; also called KpZapA; source: E. coli, purified (HisTrap, TEV cleavage, second HisTrap, Superdex200 SEC); not shown: His6, N-terminal, cleaved
Consider B2, for which the “stoichiometry N” value was determined as 4.

In general, stoichiometry N refers to the number of molecules, sites or subunits per partner or assembly.
